Experiments:
alpha-2 integrin subunit = alpha-2 integrin subunit (human, UniProt P17301); assay: co-immunoprecipitation from surface-labelled beta-8-transfected 293 cells with monoclonal antibody P1H5
Description: (§1) For the immunoprecipitation, four hundred microliters of the labelled cell extract was incubated with 1/100 volume of antibody (ascites, culture supernatant or antiserum) at 4° C. overnight, and immunoprecipitations were carried out using Protein G Sepharose™ 4FF (Pharmacia) after first preclearing with SEPHAROSE™ CL-4B (Pharmacia). Protein G SEPHAROSE™ beads were washed three times with 0.05% Tween 20, 20mM Tris pH 8, 120 mM NaCl, 2 mM CaCl_2. Proteins precipitated from the labelled cell extracts were solubilized by heating in sample buffer and analyzed by separation on a 7.5% SDS-polyacrylamide gel followed by autoradiography.
(§2) These cells endogenously express various alpha integrin subunits, including alpha-v. The beta-8 integrin transfected cell proteins were prepared for immunoprecipitation as described in Example 4.
(§3) Monoclonal antibodies against several different alpha integrin subunits were used in the immunoprecipitations in order to identify with which alpha subunit the beta-8 integrin formed a complex. […]

alpha-3 integrin subunit = target: T1, alpha-3 integrin subunit (human, UniProt P26006); assay: co-immunoprecipitation from surface-labelled beta-8-transfected 293 cells with monoclonal antibody P1B5
T1 sequence 1: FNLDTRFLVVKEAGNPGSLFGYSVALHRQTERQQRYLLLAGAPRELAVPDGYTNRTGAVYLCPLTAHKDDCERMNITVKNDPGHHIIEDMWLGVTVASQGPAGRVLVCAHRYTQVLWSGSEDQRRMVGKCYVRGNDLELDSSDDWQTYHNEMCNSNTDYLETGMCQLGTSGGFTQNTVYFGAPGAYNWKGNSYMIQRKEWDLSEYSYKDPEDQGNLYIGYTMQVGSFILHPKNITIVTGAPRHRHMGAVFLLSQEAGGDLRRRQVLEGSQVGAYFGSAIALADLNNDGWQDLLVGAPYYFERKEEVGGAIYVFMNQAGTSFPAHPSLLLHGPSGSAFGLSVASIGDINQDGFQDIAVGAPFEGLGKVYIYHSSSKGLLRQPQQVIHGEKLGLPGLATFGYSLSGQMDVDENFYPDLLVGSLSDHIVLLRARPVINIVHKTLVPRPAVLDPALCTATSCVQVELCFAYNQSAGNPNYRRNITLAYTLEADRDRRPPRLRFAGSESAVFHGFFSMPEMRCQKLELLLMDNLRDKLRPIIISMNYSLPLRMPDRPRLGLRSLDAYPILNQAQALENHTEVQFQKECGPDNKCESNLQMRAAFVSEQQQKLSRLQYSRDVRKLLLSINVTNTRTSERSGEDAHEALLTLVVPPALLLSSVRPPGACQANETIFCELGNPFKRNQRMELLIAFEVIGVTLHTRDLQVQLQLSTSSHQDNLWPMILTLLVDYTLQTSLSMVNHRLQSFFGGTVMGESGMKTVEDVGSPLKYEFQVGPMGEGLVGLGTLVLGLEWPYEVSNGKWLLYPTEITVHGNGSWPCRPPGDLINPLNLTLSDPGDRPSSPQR
T1 sequence 2: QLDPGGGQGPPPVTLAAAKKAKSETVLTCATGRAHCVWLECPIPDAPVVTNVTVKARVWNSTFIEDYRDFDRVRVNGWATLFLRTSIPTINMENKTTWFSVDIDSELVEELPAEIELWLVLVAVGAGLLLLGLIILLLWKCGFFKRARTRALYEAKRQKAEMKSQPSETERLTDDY
Description: as §1, §2, §3

alpha-6 integrin subunit = target: T2, alpha-6 integrin subunit (human, UniProt P23229); assay: co-immunoprecipitation from surface-labelled beta-8-transfected 293 cells with monoclonal antibody GoH3
T2 sequence 1: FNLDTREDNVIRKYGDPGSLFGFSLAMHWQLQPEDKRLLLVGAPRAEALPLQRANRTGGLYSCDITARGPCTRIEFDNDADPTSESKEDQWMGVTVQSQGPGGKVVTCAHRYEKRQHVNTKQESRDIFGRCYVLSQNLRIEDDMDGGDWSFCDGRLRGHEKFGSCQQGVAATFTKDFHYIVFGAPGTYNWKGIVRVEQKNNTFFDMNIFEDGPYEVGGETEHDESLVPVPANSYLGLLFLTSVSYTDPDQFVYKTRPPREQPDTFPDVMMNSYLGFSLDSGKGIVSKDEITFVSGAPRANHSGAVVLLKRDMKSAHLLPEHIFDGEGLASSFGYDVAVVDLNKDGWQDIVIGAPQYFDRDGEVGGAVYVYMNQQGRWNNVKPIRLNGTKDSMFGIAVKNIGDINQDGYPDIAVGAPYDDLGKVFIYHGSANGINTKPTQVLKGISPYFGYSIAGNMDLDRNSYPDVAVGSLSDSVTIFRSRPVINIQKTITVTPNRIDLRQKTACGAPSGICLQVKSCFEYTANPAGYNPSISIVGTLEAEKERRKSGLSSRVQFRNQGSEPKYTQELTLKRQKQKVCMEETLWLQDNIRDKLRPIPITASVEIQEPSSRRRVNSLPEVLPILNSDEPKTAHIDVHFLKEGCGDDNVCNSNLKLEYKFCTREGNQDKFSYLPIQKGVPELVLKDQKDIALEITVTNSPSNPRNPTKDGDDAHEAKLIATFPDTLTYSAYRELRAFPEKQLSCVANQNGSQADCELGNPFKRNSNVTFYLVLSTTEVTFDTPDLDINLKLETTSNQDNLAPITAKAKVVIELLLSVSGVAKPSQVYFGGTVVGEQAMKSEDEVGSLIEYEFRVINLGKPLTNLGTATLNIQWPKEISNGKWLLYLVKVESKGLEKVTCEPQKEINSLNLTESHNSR
T2 sequence 2: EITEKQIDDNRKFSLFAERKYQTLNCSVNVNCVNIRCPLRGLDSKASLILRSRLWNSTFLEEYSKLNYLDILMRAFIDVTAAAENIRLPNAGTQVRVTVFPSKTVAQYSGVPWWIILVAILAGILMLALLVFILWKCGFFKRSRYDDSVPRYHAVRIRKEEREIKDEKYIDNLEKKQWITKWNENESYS
Description: as §1, §2, §3

alpha-1 integrin subunit = alpha-1 integrin subunit (human, UniProt P56199); assay: co-immunoprecipitation from surface-labelled beta-8-transfected 293 cells with monoclonal antibody TS2/7
Description: as §1, §2, §3

alpha-5 integrin subunit = alpha-5 integrin subunit (human, UniProt P08648); assay: co-immunoprecipitation from surface-labelled beta-8-transfected 293 cells with monoclonal antibody P1D6
Description: as §1, §2, §3

binding result (alpha-2 integrin subunit): no binding | binding result (alpha-3 integrin subunit): no binding | binding result (alpha-6 integrin subunit): no binding | binding result (alpha-1 integrin subunit): no binding | binding result (alpha-5 integrin subunit): no binding
B1: human beta-8 integrin subunit (receptor)
chain: EDNRCASSNAASCARCLALGPECGWCVQEDFISGGSRSERCDIVSNLISKGCSVDSIEYPSVHVIIPTENEINTQVTPGEVSIQLRPGAEANFMLKVHPLKKYPVDLYYLVDVSASMHNNIEKLNSVGNDLSRKMAFFSRDFRLGFGSYVDKTVSPYISIHPERIHNQCSDYNLDCMPPHGYIHVLSLTENITEFEKAVHRQKISGNIDTPEGGFDAMLQAAVCESHIGWRKEAKRLLLVMTDQTSHLALDSKLAGIVVPNDGNCHLKNNVYVKSTTMEHPSLGQLSEKLIDNNINVIFAVQGKQFHWYKDLLPLLPGTIAGEIESKAANLNNLVVEAYQKLISEVKVQVENQVQGIYFNITAICPDGSRKPGMEGCRNVTSNDEVLFNVTVTMKKCDVTGGKNYAIIKPIGFNETAKIHIHRNCSCQCEDNRGPKGKCVDETFLDSKCFQCDENKCHFDEDQFSSESCKSHKDQPVCSGRGVCVCGKCSCHKIKLGKVYGKYCEKDDFSCPYHHGNLCAGHGECEAGRCQCFSGWEGDRCQCPSAAAQHCVNSKGQVCSGRGTCVCGRCECTDPRSIGRFCEHCPTCYTACKENWNCMQCLHPHNLSQAILDQCKTSCALMEQQHYVDQTSECFSSPSYLRIFFIIFIVTFLIGLLKVLIIRQVILQWNSNKIKSSSDYRVSASKKDKLILQSVCTRAVTYRREKPEEIKMDISKLNAHETFRCNF
modifications: surface labelled with 125I (lactoperoxidase)

Reference: patent US5635601, “Beta-8 integrin subunit antibodies” (Genentech, Inc., dated 1997)
